Experimental data as given in the supplement of paper PMC9170038.

System: MS2 coat protein
Assay: apparent KD of MS2 coat protein; designed switch direction (-1 OFF switch, 1 ON switch): -1; higher = weaker reporter binding
Method in brief: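 Normalised cluster fluorescence was curve-fitted, and each design's median over clusters is its apparent KD. Before this, SNAP-549-labelled MS2 coat protein was titrated from 0.7 or 1.5 nM, doubling to 3 µM, over RNA switches transcribed on Illumina chips by stalled E. coli RNA polymerase. Titrations had no input, 200 uM small-molecule ligand, or an oligonucleotide input, and steps lasted 0.8–1.5 h (lowest) to 10–20 min (highest).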

[1] = Eterna round: R95, input ligand: FMN 200 uM
[2] = Eterna round: R95, input ligand: microRNA oligo, concentration not stated
[3] = Eterna round: R95, input ligand: none
[4] = input ligand: microRNA oligo, concentration not stated

Row | Sequence | apparent KD of MS2 coat protein (input ligand: FMN 200 uM) [nM] | apparent KD of MS2 coat protein (input ligand: none) [nM] | apparent KD of MS2 coat protein [2] [nM] | further results
1 | AAGGGACAUGAGGAUCACCCAUGUCAGGAUAUUAGUGUGAGUCACCUUGUGAAUACACUAAGAAGGGAUAGAAA [Eternabot (Original) Solution 38] (Eterna round: R97, puzzle: Exclusion 1) | 69.8 | 84.5 |  | 
2 | AAGAAACAUGAGGAUCACCCAUGUGAGGAUAUGAGGAAGAAAAGAAAAGAAAGAAGAAUCAGAAGGCACAAAGG [salish99-ex1_r3_049] (puzzle: Exclusion 1) |  |  | 36.5 | apparent KD of MS2 coat protein [1]: 56.3 nM; apparent KD of MS2 coat protein [3]: 43.6 nM
3 | GAUUAUGCGAGCUUUAGGGACAUGAGGAUCACCCAUGUUCGUCUUAUUGAUCUGGGUACACUAACAUACCUAAAUCU [JMF 20] (puzzle: Sensor v3, turn-off variant 1) |  |  | 99.7 | apparent KD of MS2 coat protein [1]: 87.2 nM; apparent KD of MS2 coat protein [3]: 94.3 nM
4 | CCCUCACAUGAGGAUCACCCAUGUCAGGAUAUUCAAAGCGCAAAUGCGCCAAAUGCAGGAAGAAGGGACGUGCC [Bisoar] (Eterna round: R96, puzzle: Exclusion 1) | 18.6 | 15 |  | apparent KD of MS2 coat protein [4]: 10.3 nM
5 | GGAUAAAGUCGAGGAUAUACGCACCACUAACGAGUAGAAGGCGAACAUGAGGAUCACCCAUGUGAGUUCUCAAUAAGAAACACG [Prohibition 69 - Jieux - Exclusion NG 1] (Eterna round: R96, puzzle: Exclusion NG 1) | 54.1 | 37.1 |  | apparent KD of MS2 coat protein [4]: 26.1 nM
6 | GGUUGGCGAGGAUAUACAUGAGGAUCACCCAUGUGGUCCUAAAAUAAAAUAGACCUUUGUAGAAGGCGCGGGUC [salish99_ex3_r4_040] (Eterna round: R97, puzzle: Exclusion 3) | 139 | 215 |  | 
7 | UAUAUAUAGUAAGGAUAUGUAUUCAUUUUAUAAACAGAAGGUACUGACAUGAGGAUCACCCAUGUUUUAGUGUGGGCAUGUAGA [JMF's solution 10] (Eterna round: R96, puzzle: Exclusion NG 1) |  |  |  | apparent KD of MS2 coat protein [4]: 64.1 nM
8 | CUGGUGCGCGGAGGAUAUCGGAAAGGAAGUGUACGAGAAGGUCGUUCCACCAAACAUGAGGAUCACCCAUGUAGGAGUGACCUC [PowerStrip EXNG 1.7] (Eterna round: R96, puzzle: Exclusion NG 1) | 127 | 62.9 |  | apparent KD of MS2 coat protein [4]: 45.6 nM
9 | ACUUGUCAUGAGGAUAUGCGACGCAACGGUGGAGCAGAAGGCGUGACAUGAGGAUCACCCAUGUCAGUUCGCGA [eternacac ex6r4 sub32] (Eterna round: R97, puzzle: Exclusion 6) | 43.4 | 16.1 |  | 
10 | GCCGUAAGUGUGAGGAUAUACCUAUGGAAACAUAGGUAGAAGGCACAUGAGGAUCACCCAUGUCCUUAAUCGGC [Mat - Exclusion 4 - Eli Mod - D4] (Eterna round: R97, puzzle: Brourd's mod of Exclusion 4) | 366 | 224 |  | 
11 | GAGGGUUAAGGAUAUACAUGAGGAUCACCCAUGUAUGGCAAGCCAUAAUCCUCAUUAAGUAGAAGGUAACCUUC [Edederle] (puzzle: Exclusion 3) |  |  | 11.8 | 
12 | UACAUGAGGAUCACCCAUGUUUUGUCGUGUAUGGUAUUUAUCUAGGAUAUCAAUGUAUUUAGUUAUGAGAAGGAGAAUAUUAAU [JMF's solution 46] (Eterna round: R96, puzzle: Exclusion NG 3) | 38.1 | 35.3 |  | apparent KD of MS2 coat protein [4]: 32 nM
13 | ACAUGAGGAUCACCCAUGUCCGGCUGGUCCGUCUCGGCUGUCGAGGAUAUAGCUUGGUGUCCGCGCUAGAAGGUGGGAGCCGGC [Aenatbe mod 71] (Eterna round: R96, puzzle: Exclusion NG 3) | 166 | 154 |  | apparent KD of MS2 coat protein [4]: 105 nM
14 | CGUAGCAAAGUGAGGAUAUCUAGAGCCUCGGCUCUAGAGAAGGCACAUGAGGAUCACCCAUGUGGUCAGCUACG [BmEx4/8-A2] (Eterna round: R97, puzzle: Brourd's mod of Exclusion 4) | 1050 | 101 |  | 
15 | GAUUGACAUGAGGAUCACCCAUGUGAGGAUAUCGGCCGGACCGUGUUGGCUUCCGUCGCGAGAAGGCGCAUAGG [Exclusion 1 V39] (puzzle: Exclusion 1) |  |  | 82.2 | apparent KD of MS2 coat protein [1]: 173 nM; apparent KD of MS2 coat protein [3]: 101 nM
16 | CCGUAGUCAGGAUAUACAUGAGGAUCACCCAUGUAAAAUUUUAAUUUAAUUUGAAGGUGUAGAAGGGACCAGCC [Ex3 #28] (Eterna round: R97, puzzle: Exclusion 3) | 33.5 | 35.6 |  | 
17 | UUUUAACAUGAGGAUCACCCAUGUGAGGAUAUCGAAAUUUAUAUUAAUAUUAAUAUAUCGAGAAGGCACAUUUU [JMF 24] (puzzle: Exclusion 1) |  |  | 74.9 | 
18 | GAAAACGCAGAGGAUAUUUCAGAUCAAAGCUGCAAAGAAGGCUGCACAUGAGGAUCACCCAUGUGGUCUUUAAA [Quesina] (Eterna round: R96, puzzle: Exclusion 6) |  |  |  | apparent KD of MS2 coat protein [4]: 16 nM

Row | Sequence | apparent KD of MS2 coat protein (input ligand: FMN 200 uM) [nM] | apparent KD of MS2 coat protein (input ligand: none) [nM] | apparent KD of MS2 coat protein [2] [nM] | further results
19 | UAUUAGCAAGCGAAAUCCCACAUGAGGAUCACCCAUGUAAAUAAAAGCUCCAGAAUUACUGGAGCAGCUCGUCUUAU [Winner reversed engineered 18] (Eterna round: R97, puzzle: Sensor, turn-off variant 1) | 29.8 | 24.5 |  | 
20 | AGCAGACGAGGAUAUAAAUUUAAAUACAUGAGGAUCACCCAUGUAUAAAUGUAUUUAAAUUUAGAAGGCGUCUGCU [E5/12-A1] (Eterna round: R97, puzzle: Exclusion 5) | 793 | 710 |  | 
21 | GGUAAGCUAGGAUAUGCUUUGGGAAAGCAUUCCUUCGAUAAACUUGAGGAUCACCCAAGUAGAAGGAGCUUACU [salish99_ex2_r4_014] (Eterna round: R97, puzzle: Exclusion 2) | 19.2 | 14.4 |  | 
22 | AGUACUAUGCGUGCUGACAUGCGUAGUGCAGCAGGUGUUACAUGAGGAUCACCCAUGUCCUCAUUUGCUCGUCUUAU [Mat - Sensor v3 - Turn-off var 2 - D15] (puzzle: Sensor v3, turn-off variant 2) |  |  | 79.2 | apparent KD of MS2 coat protein [1]: 75.7 nM; apparent KD of MS2 coat protein [3]: 80.4 nM
23 | UAUUAGCAAGUAAGAUCCCACAUGAGGAUCACCCAUGUGCUCGUCUUAUAAGGUACUGUGACGAAAGUCACGGUACC [Sensor 3, v1 - 88] (puzzle: Sensor v3, turn-off variant 1) |  |  | 1040 | apparent KD of MS2 coat protein [1]: 12.6 nM; apparent KD of MS2 coat protein [3]: 16.5 nM
24 | AAUUCACAUGAGGAUCACCCAUGUCAGGAUAUGGUUUCACUUUUUUCUUUUCUUGAUUCCAGAAGGGACAGCUA (puzzle: Exclusion 1) |  |  | 62.6 | 
25 | AGCUGUGGCCGAGGAUAUCUAUCCAAUAUAACCGAAAUAUAAUCGGACAUGAGGAUCACCCAUGUAGAGAAGGCGGUCUCAGCA [Eli eng2 - 093] (Eterna round: R96, puzzle: Exclusion NG 2) |  |  |  | apparent KD of MS2 coat protein [4]: 15.3 nM
26 | AGCUGUGGCCGAGGAUAUUACGAACCAUGGAAAACCAUGGAAACUCUACAUGAGGAUCACCCAUGUAAGAAGGCGGUCUCAGCA [Eli eng2 - 024] (Eterna round: R96, puzzle: Exclusion NG 2) | 47.5 | 16.4 |  | apparent KD of MS2 coat protein [4]: 11.7 nM
27 | UAAUAGAUGGUUAGGAUAUGCUGGCCUAGGCCGCGGCAGAAGGAACAUGAGGAUCACCCAUGUAGUAGGAUCCA [Eternabot (L2) Solution 15] (Eterna round: R97, puzzle: Brourd's mod of Exclusion 4) | 204 | 98.6 |  | 
28 | GGAGAGAGAGGAUAUGGAGGAAAGAACAUGAGGAUCACCCAUGUAGAGCCUCAAGAUCGACCAGAAGGCUCAGUCC [AK-MS2ROC-r4-exclusion5-10] (Eterna round: R97, puzzle: Exclusion 5) | 150 | 27.5 |  | 
29 | UCGGCGCGAGGAUAUACGUUUGCUUUUUAGGGUCGUGGCGUACAUGAGGAUCACCCAUGUAGAAGGCGCGCCGC [Apr-15 SS2-29] (puzzle: Exclusion 2) |  |  | 14.6 | 
30 | GCAUCACAUGUCAGGAUAUGCUGUACCUUGGUACAGCAGAAGGGACAUGAGGAUCACCCAUGUGCCUAUGAUGC [JL-BMX4-4.11] (Eterna round: R97, puzzle: Brourd's mod of Exclusion 4) | 555 | 59.3 |  | 
31 | UUAAACGGAGGAUAUACAUUUUUUUUAUUAUCCUCAUUAAAACAUGAGGAUCACCCAUGUAGAAGGCCGAAAUU [Mat - Exclusion 2 - Mod of Hog - D86] (puzzle: Exclusion 2) |  |  | 91.5 | 
32 | GCCUUACAUGAGGAUCACCCAUGUCAGGAUAUCGUUCAAGAUCUGACCUUAGAUCGAUCGAGAAGGGACUGGAU [Eternabot (L1) Solution 39] (Eterna round: R97, puzzle: Exclusion 1) | 27.4 | 17.2 |  | 
33 | AUCAACGUGUUAGGAUAUAAGCCUAAAAGAGACUUAGAAGGGACAUGAGGAUCACCCAUGUCGGGCGCCCAAGCUAUGCGACCU [Eternabot solution 4] (Eterna round: R96, puzzle: Exclusion NG 1) | 32.8 | 26.3 |  | apparent KD of MS2 coat protein [4]: 17.4 nM
34 | GGCCGUAAUAAGGAUAUCACUAGCUUCGGCUAGUGAGAAGGUAUUACAUGAGGAUCACCCAUGUGAUUAGGCCA [E6/5-B1] (Eterna round: R97, puzzle: Exclusion 6) | 98.1 | 25.2 |  | 
35 | GGUUAUUGCAAGGAUAUGCUUUUUUUUGAUAUUGCAGAAGGUGCAACAUGAGGAUCACCCAUGUUGGAGGGAUU [JR_E6_Sub020] (puzzle: Exclusion 6) |  |  | 32.7 | 
